Measurements published in the domain aggregation screens of Martell et al. (2025).

Assay: soluble fraction after stress (log2 fold change); higher = more stays soluble; pooled small domains, quantitative proteomics
Details: stress: 50 degC
Outline: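 After stress at 50°C, the amount of each protein still soluble was measured. This was done on pooled custom libraries of small protein domains, using high-throughput quantitative proteomics. The figure given is a base-two log fold change and stands for aggregation propensity, with higher values meaning more protein stays in solution.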

Which “soluble fraction (log2)” value does the source give for “HMAIDLPVTTVNGKDYYYYDVQPKETIFSLSQRLGISREEIISYNPGVDGGLKAYTRLYFPVESGL” here?
Its value is -0.201.

Which “soluble fraction (log2)” value does the source give for “HMNFDLDSFKQRMTLDGLYFGNEKQDVIALNNLSERYQLTWFDVYQLAKETSSNHKILPKRILVKLQQ” here?
The value was -1.07.

Which “soluble fraction (log2)” value does the source give for “HMEGIWAVFYDGKPINLKSSSLVANYPGPKYKKVSFSNPGHAENLAKKLNAQHNTDKFGVYLLKSGDKFS” here?
The value was -0.00158.

Which “soluble fraction (log2)” value does the source give for “HMVRTIKILGIKHNINLYYKNVKVPTMNVKNQTLEIILPNKYKKFQEEQILKVLTQKLYDKIAETEIEKIK” here?
Its value is -0.465.

For “HMDAEETLGARLRRLRQARGLSLAGLAQAAGLSKPSIWAWENGTTAPRRTSLLALARALDVPEQQLTGV”, which “soluble fraction (log2)” value is on record?
Its value is -0.358.

For “HMKGPLKDLGPDPVTGKSILVKDGKFGTYVTDGETNATLRRGDIVELLTLERGMELLAEKRARATQ”, which “soluble fraction (log2)” value is on record?
Its value is 0.151.

Which “soluble fraction (log2)” value does the source give for “HMTSMTHLGRHPDSEISLDDISVSRRHAEIERQGHEYVLRDSGSLNGTYVNQQRVDSVVLQQGDEIL” here?
The value was 0.234.

Which “soluble fraction (log2)” value does the source give for “HMSEYITEGWLREKFGLGWGTEVHLPLDSRLTPAAHQLLEERKIVIKYIDAEGRVFNPDKSGEEAPVQ” here?
The value was 0.0587.

Which “soluble fraction (log2)” value does the source give for “HMGHEALSSKLDEIQGVGKEKRSLLLDHFKTFERIKNASMEELEAVPSLGKNTAKAVFRFFHS” here?
Its value is 0.07.

Which “soluble fraction (log2)” value does the source give for “HMTVSADIIQKIIKTSTTDENIITIDSISNSISKLALSKITAEDIIEILEASSLVLRNSNGSWTVL” here?
Its value is -0.617.

With “HMPLLSPRQLDVLSLAAGGLSDAQIAGRLVLSESTVRVHFHHIIEKLGVTDRAGAIAWYEQSRS” as the sequence, how does the “soluble fraction (log2)” value read?
The value was -1.03.

With “HMSESEDFQNRWRPWRSLLDDETPVVREALVDQLKLFPEEGRLFLQQMSEEDDPISARHAFELIKSLGW” as the sequence, how does the “soluble fraction (log2)” value read?
The value was -0.132.

Which “soluble fraction (log2)” value does the source give for “HMQQISDPQVLRPMAEEVLHQSQKVVQDYKGGNKNAFHALVGQMMKKTQGKGNPQVIGQVLSELLDE” here?
Its value is 0.476.

Which “soluble fraction (log2)” value does the source give for “HMTTARERVYKTLQQWIVNGTLLPEERLNDVELARYFSVSRTPVREALQMLAEQKLVKMVPSSGTFVA” here?
Its value is -0.769.

With “HMVILPGEKMVVKIVQPGKEKGQGVGYLADGTMIVVDSGDKMIGQDVPTEITRVFQTVAGKMLFAVPVD” as the sequence, how does the “soluble fraction (log2)” value read?
The value was -0.426.

Which “soluble fraction (log2)” value does the source give for “HMSNATELVYDDGRKLLISYETLVGGYHPDLGWIRTAKTYSISTDKHIRNYFNNVTNPRVVGEDILETLKI” here?
Its value is 0.0667.

With “HMSVSTGTITGSVVNLREEPNTSSKVLDKLPKDTVVYVLSASGEWYNVSYGDKTGWVYGEYLA” as the sequence, how does the “soluble fraction (log2)” value read?
Its value is -0.163.

Which “soluble fraction (log2)” value does the source give for “HMRTPTGVQAYLSSGLIKGIGEKTAAAIVDKFGTDALSVIETDPERLLEIPGITPNKLREILESYNQH” here?
The value was 0.141.

For “HMRAAFEHLTIGQTVSGLVKSQARGVSLVEIEGQTVAMRLPQPVAVGDTLRLRFAGHMPQPVFLLDT”, which “soluble fraction (log2)” value is on record?
Its value is -0.132.

Which “soluble fraction (log2)” value does the source give for “HMQALTLVGQDAKDAKAALDAVDIQPAKTETDRYIYVLTEQQAQELGRTVDALYGVEGSLTLILEV” here?
The value was 0.0301.

Which “soluble fraction (log2)” value does the source give for “HMPPDLSEAIQKRIEGKTDEALEILRKLYNEYPESTEIITMLGRTLLDAEEYALAAFRLEQALDLGG” here?
The value was -0.569.

For “HMSLAATLSPREIDTVRLIAVGSSNKEIARQLGIAETTVKIHVQHILRKLNLTSRVQVAVFANAEGII”, which “soluble fraction (log2)” value is on record?
Its value is -0.801.

Which “soluble fraction (log2)” value does the source give for “HMAGATDTVRNLLERQIREGELLPGQRLPTEPELAARLGVSRNSLREALQSLEDSGLIVKRHGIGTFVTE” here?
Its value is 0.0848.

For “HMDRSQRDQEQAQLIRLVQQAFDDSGQRYGAEKIRITLAEGGIRVSTKRIAAIMQELDLRSI”, which “soluble fraction (log2)” value is on record?
The value was -1.36.

With “HMVLELRIGQIVRGVLLQLVGEREGIVSVGGVPVRARLEAEIPLGRGVMLQVQPGSDANNILLKPV” as the sequence, how does the “soluble fraction (log2)” value read?
The value was -0.515.

With “HMGAIVTGTVVEIRSDVVIVNAGLKSEGVVPIEQFRNEAGELEVSVGDEVKVALDALEDGFGETRLS” as the sequence, how does the “soluble fraction (log2)” value read?
Its value is -0.329.

With “HMTTTPTSQMVTELRSRGWTLRALAQRLGVGHASINRWANGVTPDRDLVAALRALVASGEVP” as the sequence, how does the “soluble fraction (log2)” value read?
Its value is -0.216.

For “HMVLTSFHDNFPKTGTTYTVRSGDTISGIATKFGSTRDWIQNANEISHPKYLQVGRTLFIPH”, which “soluble fraction (log2)” value is on record?
The value was -0.203.

With “HMGGTTLIAKQATVTGDIQFSSNLDIEGRVVGAISVEPGKEAMLHVVEGGSVEGEIRVPSAVINGKVTGDI” as the sequence, how does the “soluble fraction (log2)” value read?
The value was 0.101.

Which “soluble fraction (log2)” value does the source give for “HMTKTFDSPEDADNDVLAKTLFQIFGVQSVYLKENFVTITKSNSVGWHTLMEKTGHTLEEHLKF” here?
The value was 0.0987.

With “HMSGRSVSYSEFMSRVEAGQVSSVTLDGERVEVTGSDGSRYVTIAPSDATLTDKLVAKGVEVRADP” as the sequence, how does the “soluble fraction (log2)” value read?
The value was 0.102.

For “HMAQTTKWREIHKVKRKETIFGIARDNGLTVDELIEANPEMTKPGYELKKGDFIYIPFPSKNIDTNAGTQT”, which “soluble fraction (log2)” value is on record?
Its value is -0.157.

With “HMTLTPEQQAARRSEIVDIALRLIAENGFQKTSMREIADLAKMGKSSLYDFFKTKDEIAVYAMEKK” as the sequence, how does the “soluble fraction (log2)” value read?
Its value is -0.283.

For “HMNELTDKQILLFSNKLAHNIPFSSKYSKPGESYEEFAERLANELIDPQKVKLYKPYLEEVGFK”, which “soluble fraction (log2)” value is on record?
Its value is 0.302.

For “HMGYLNDRQRLIKDFITENQPLKVSDLVKQFPNIGLSTLKKDLQYLRGEQVLTMIGKGKGSVYVLNKK”, which “soluble fraction (log2)” value is on record?
The value was -0.446.

With “HMRTYDPQAVELNNKALELINQGRLDSALLVYDQSIKTDKTYYFPHIGKSIIYMRKKDWNKAFEETQQAIK” as the sequence, how does the “soluble fraction (log2)” value read?
The value was 0.18.

Which “soluble fraction (log2)” value does the source give for “HMNAKKSTLQLDLLKQLLEGNKISLKDFSLSNEISIRTAQRYIEDLLEIFEKNIVKEGDFYSFIS” here?
Its value is -2.3.

Which “soluble fraction (log2)” value does the source give for “HMTAYEGLPVTLIIDGRVFQQNLQKMNLSVEWLRLELKKFGVTNLKEVLFASLDTEGKLFYQLKT” here?
Its value is 0.0485.
